{"source": "paper PMC9672952", "key": {"[1]": {"molecular_target": "Fusion of LpRseP (1–328) and EfmRseP (329–422) (Lactiplantibacillus plantarum WCFS1 | Enterococcus faecium P21) (UniProt I3U2R6)"}, "[2]": {"molecular_target": "EfmRseP with substitution N364A (Enterococcus faecium P21) (UniProt I3U2R6)"}, "[3]": {"molecular_target": "Fusion of EfmRseP (1–221) and LpRseP (222–425) (Enterococcus faecium P21 | Lactiplantibacillus plantarum WCFS1) (UniProt I3U2R6)"}, "[4]": {"molecular_target": "EfmRseP with substitution P367A (Enterococcus faecium P21) (UniProt I3U2R6)"}, "[5]": {"molecular_target": "Fusion of EfmRseP (1–170) and LpRseP (171–425) (Enterococcus faecium P21 | Lactiplantibacillus plantarum WCFS1) (UniProt I3U2R6)"}, "[6]": {"molecular_target": "EfmRseP with substitution P369A (Enterococcus faecium P21) (UniProt I3U2R6)"}, "[7]": {"molecular_target": "EfmRseP with substitution E19A (Enterococcus faecium P21) (UniProt I3U2R6)"}, "[8]": {"molecular_target": "EfmRseP with substitution H18A (Enterococcus faecium P21) (UniProt I3U2R6)"}, "[9]": {"molecular_target": "Fusion of LpRseP (1–171, 222–425) and EfmRseP (172–221) (Lactiplantibacillus plantarum WCFS1 | Enterococcus faecium P21) (UniProt I3U2R6)"}, "[10]": {"molecular_target": "EfmRseP with the triple alanine substitution of the HExxH motif (Enterococcus faecium P21) (UniProt I3U2R6)"}, "[11]": {"molecular_target": "Fusion of EfmRseP (1–325) and LpRseP (326–425) (Enterococcus faecium P21 | Lactiplantibacillus plantarum WCFS1) (UniProt I3U2R6)"}, "[12]": {"molecular_target": "Fusion of LpRseP (1–201, 222–425) and EfmRseP (202–221) (Lactiplantibacillus plantarum WCFS1 | Enterococcus faecium P21) (UniProt I3U2R6)"}, "[13]": {"molecular_target": "Fusion of LpRseP (1–201, 328–425) and EfmRseP (202–327) (Lactiplantibacillus plantarum WCFS1 | Enterococcus faecium P21) (UniProt I3U2R6)"}, "[14]": {"molecular_target": "Truncation of EfmRseP (1–39, 139–422) Δ40–138 (Enterococcus faecium P21) (UniProt I3U2R6)"}, "[15]": {"molecular_target": "EfmRseP with substitution N359A (Enterococcus faecium P21) (UniProt I3U2R6)"}, "[16]": {"molecular_target": "Fusion of EfmRseP (1–200) and LpRseP (201–425) (Enterococcus faecium P21 | Lactiplantibacillus plantarum WCFS1) (UniProt I3U2R6)"}, "[17]": {"molecular_target": "EfmRseP with substitution H22A (Enterococcus faecium P21) (UniProt I3U2R6)"}, "[18]": {"molecular_target": "Fusion of LpRseP (1–221) and EfmRseP (222–422) (Lactiplantibacillus plantarum WCFS1 | Enterococcus faecium P21) (UniProt I3U2R6)"}, "[19]": {"molecular_target": "Fusion of LpRseP (1–171, 326–425) and EfmRseP (172–325) (Lactiplantibacillus plantarum WCFS1 | Enterococcus faecium P21) (UniProt I3U2R6)"}, "[20]": {"molecular_target": "EfmRseP with substitution D372A (Enterococcus faecium P21) (UniProt I3U2R6)"}, "[21]": {"molecular_target": "RseP from Enterococcus faecium P21, C-terminal 6× His-tag (Enterococcus faecium P21) (UniProt I3U2R6)"}, "[22]": {"molecular_target": "Fusion of EfmRseP (1–32) and LpRseP (33–425) (Enterococcus faecium P21 | Lactiplantibacillus plantarum WCFS1) (UniProt I3U2R6)"}, "[23]": {"molecular_target": "RseP from Lactiplantibacillus plantarum WCFS1, C-terminal 6× His-tag (Lactiplantibacillus plantarum WCFS1)"}, "[24]": {"molecular_target": "RseP from Staphylococcus aureus ATCC 14458, without His-tag (Staphylococcus aureus ATCC 14458)"}, "[25]": {"molecular_target": "RseP from Enterococcus faecalis V583, without His-tag (Enterococcus faecalis V583) (UniProt Q9RPP2)"}, "[26]": {"molecular_target": "RseP from Staphylococcus arlettae LMGT 4134, without His-tag (Staphylococcus arlettae LMGT 4134)"}, "[27]": {"molecular_target": "RseP from Staphylococcus haemolyticus, without His-tag (Staphylococcus haemolyticus)"}, "[28]": {"molecular_target": "RseP from Enterococcus faecium P21, without His-tag (Enterococcus faecium P21) (UniProt I3U2R6)"}, "[29]": {"molecular_target": "RseP from Lactiplantibacillus plantarum WCFS1, without His-tag (Lactiplantibacillus plantarum WCFS1)"}, "[30]": {"molecular_target": "RseP from Lactococcus lactis IL1403, without His-tag (Lactococcus lactis IL1403)"}}}
{"substance": "Enterocin K1 (peptide)", "values": [{"measurement": "MIC50 of EntK1 (growth inhibition, microtiter plate) towards L. plantarum expressing this RseP variant", "setting": "[1]", "result": "> 22", "unit": "µM"}, {"measurement": "MIC50 of EntK1 (growth inhibition, microtiter plate) towards L. plantarum expressing this RseP variant", "setting": "[2]", "result": 4, "unit": "nM"}, {"measurement": "MIC50 of EntK1 (growth inhibition, microtiter plate) towards L. plantarum expressing this RseP variant", "setting": "[3]", "result": 0.7, "unit": "µM"}, {"measurement": "MIC50 of EntK1 (growth inhibition, microtiter plate) towards L. plantarum expressing this RseP variant", "setting": "[4]", "result": 4, "unit": "nM"}, {"measurement": "MIC50 of EntK1 (growth inhibition, microtiter plate) towards L. plantarum expressing this RseP variant", "setting": "[5]", "result": "> 22", "unit": "µM"}, {"measurement": "MIC50 of EntK1 (growth inhibition, microtiter plate) towards L. plantarum expressing this RseP variant", "setting": "[6]", "result": "< 0.02", "unit": "µM"}, {"measurement": "MIC50 of EntK1 (growth inhibition, microtiter plate) towards L. plantarum expressing this RseP variant", "setting": "[7]", "result": 0.01, "unit": "µM"}, {"measurement": "MIC50 of EntK1 (growth inhibition, microtiter plate) towards L. plantarum expressing this RseP variant", "setting": "[8]", "result": 0.02, "unit": "µM"}, {"measurement": "MIC50 of EntK1 (growth inhibition, microtiter plate) towards L. plantarum expressing this RseP variant", "setting": "[9]", "result": "> 22", "unit": "µM"}, {"measurement": "MIC50 of EntK1 (growth inhibition, microtiter plate) towards L. plantarum expressing this RseP variant", "setting": "[10]", "result": 2.7, "unit": "µM"}, {"measurement": "MIC50 of EntK1 (growth inhibition, microtiter plate) towards L. plantarum expressing this RseP variant", "setting": "[11]", "result": "< 2", "unit": "nM"}, {"measurement": "MIC50 of EntK1 (growth inhibition, microtiter plate) towards L. plantarum expressing this RseP variant", "setting": "[12]", "result": "> 22", "unit": "µM"}, {"measurement": "MIC50 of EntK1 (growth inhibition, microtiter plate) towards L. plantarum expressing this RseP variant", "setting": "[13]", "result": 0.09, "unit": "µM"}, {"measurement": "MIC50 of EntK1 (growth inhibition, microtiter plate) towards L. plantarum expressing this RseP variant", "setting": "[14]", "result": 2.7, "unit": "µM"}, {"measurement": "MIC50 of EntK1 (growth inhibition, microtiter plate) towards L. plantarum expressing this RseP variant", "setting": "[15]", "result": "> 22", "unit": "µM"}, {"measurement": "MIC50 of EntK1 (growth inhibition, microtiter plate) towards L. plantarum expressing this RseP variant", "setting": "[16]", "result": "> 22", "unit": "µM"}, {"measurement": "MIC50 of EntK1 (growth inhibition, microtiter plate) towards L. plantarum expressing this RseP variant", "setting": "[17]", "result": 0.01, "unit": "µM"}, {"measurement": "MIC50 of EntK1 (growth inhibition, microtiter plate) towards L. plantarum expressing this RseP variant", "setting": "[18]", "result": "> 22", "unit": "µM"}, {"measurement": "MIC50 of EntK1 (growth inhibition, microtiter plate) towards L. plantarum expressing this RseP variant", "setting": "[19]", "result": "< 2", "unit": "nM"}, {"measurement": "MIC50 of EntK1 (growth inhibition, microtiter plate) towards L. plantarum expressing this RseP variant", "setting": "[20]", "result": 0.7, "unit": "µM"}, {"measurement": "MIC50 of EntK1 (growth inhibition, microtiter plate) towards L. plantarum expressing this RseP variant", "setting": "[21]", "result": "< 2", "unit": "nM"}, {"measurement": "MIC50 of EntK1 (growth inhibition, microtiter plate) towards L. plantarum expressing this RseP variant; footnote: low expression may contribute", "setting": "[22]", "result": "> 22", "unit": "µM"}, {"measurement": "MIC50 of EntK1 (growth inhibition, microtiter plate) towards L. plantarum expressing this RseP variant", "setting": "[23]", "result": "> 22", "unit": "µM"}, {"measurement": "MIC50 of EntK1 (growth inhibition, microtiter plate) towards L. plantarum expressing this RseP; footnote: low expression may contribute", "setting": "[24]", "result": "> 22", "unit": "µM"}, {"measurement": "MIC50 of EntK1 (growth inhibition, microtiter plate) towards L. plantarum expressing this RseP", "setting": "[25]", "result": 0.04, "unit": "µM"}, {"measurement": "MIC50 of EntK1 (growth inhibition, microtiter plate) towards L. plantarum expressing this RseP; footnote: low expression may contribute", "setting": "[26]", "result": "> 22", "unit": "µM"}, {"measurement": "MIC50 of EntK1 (growth inhibition, microtiter plate) towards L. plantarum expressing this RseP", "setting": "[27]", "result": 0.17, "unit": "µM"}, {"measurement": "MIC50 of EntK1 (growth inhibition, microtiter plate) towards L. plantarum expressing this RseP", "setting": "[28]", "result": 0.01, "unit": "µM"}, {"measurement": "MIC50 of EntK1 (growth inhibition, microtiter plate) towards L. plantarum expressing this RseP", "setting": "[29]", "result": "> 22", "unit": "µM"}, {"measurement": "MIC50 of EntK1 (growth inhibition, microtiter plate) towards L. plantarum expressing this RseP", "setting": "[30]", "result": 0.09, "unit": "µM"}]}
